The source of these data is publication PMC9071374, “Identification of a WRKY transcriptional activator from Camellia sinensis that regulates methylated EGCG biosynthesis”.

This data set addresses CsWRKY57like (WRKY domain) (Camellia sinensis, UniProt A0A4S4EXI7 145-222). Kind of data set: EMSA; excess unlabeled probe abolishes binding; Biotin-labeled probes, 6% native PAGE; buffer, salt, pH and temperature not stated (cited refs 48, 49). The note with it: protein: recombinant; tags: GST (pGEX-4T); label: biotin.

Sequence of CsWRKY57like (WRKY domain) (A0A4S4EXI7 entry or part of it): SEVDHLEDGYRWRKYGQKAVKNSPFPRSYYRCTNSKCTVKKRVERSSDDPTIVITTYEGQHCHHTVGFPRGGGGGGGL

B1: CCoAOMT promoter W-box probe (dsDNA)
DNA 1: TTTACTTAAAATATGGATTTTGACTTGTGATATAAAAAATTATAAATATTTT
DNA 2: AAAATATTTATAATTTTTTATATCACAAGTCAAAATCCATATTTTAAGTAAA
For B1, the binding result is “binds”.

B2: CsDFR promoter W-box probe (dsDNA)
DNA 1: GCCCAAGCTCATATAGTCAAAAAAGTCAAAAAGCCAAAAAGTCAACCCACTTCCC
DNA 2: GGGAAGTGGGTTGACTTTTTGGCTTTTTGACTTTTTTGACTATATGAGCTTGGGC
With B2, the binding result is on record as “binds”.
